Source: patent US6770740B1, “Crosslinked DNA condesate compositions and gene delivery methods” (The Regents of the University of Michigan, priority 1999, dated 2004)

Experiments:
[1] = QELS particle size and zeta potential of peptide DNA condensates, Example 6; format: physicochemical; settings: charge ratio 4:1, 50 μg/ml DNA in HBM; for Particle Size (nm): 90°, average and SD of three, No particles formed; for Zeta Potential (mV): average and SD of ten
Description: The particle size and zeta potential of peptide DNA condensates were determined by quasielastic light scattering (QELS) using a Brookhave ZetaPlus™. Particle size analysis was performed in triplicate at a DNA concentration of 50 μg/ml in HBM at a charge ratio of 4:1 and a scattering angle of 90°. Data analysis utilized a multimodal volume distribution option included with the instrument. Zeta potential was also determined using 50 μg/ml peptide DNA condensates prepared at a 4:1 charge ratio in HBM. The reported zeta potential was averaged from ten determinations.

[2] = tested on: plasmid DNA; assay: Thiazole orange displacement titration of peptide binding to DNA, Example 6; settings: titration across charge ratios 0.25-8
Description: Peptide DNA condensates were prepared by combining 50 μg of DNA in 500 μl of Hepes buffered mannitol (HBM) (5 w/v% mannitol, 5 mM Hepes, pH 7.5) with […] of peptide in 500 μl of HBM while vortexing to form peptide DNA condensates with a calculated primary amine to phosphate charge ratio between 0.25 and 8.0 (NH4^+:PO4). The condensates were allowed to cross-link for 30 min prior to performing physical measurements. The binding of each peptide to DNA was assayed by combining peptide DNA condensates (50 μl) with 950 μl of HBM containing 0.1 μM thiazole orange. The fluorescence of the intercalated dye was measured using an LS50B fluorometer (Perkin Elmer, UK) by exciting at 500 nm while monitoring emission at 530 nm with the slit width set at 15 and 20 nm, respectively. Fluorescence blanks were substracted from all values before data analysis.

[3] = Shear stress stability (salt sonication assay), Example 6; format: physicochemical; settings: 30 sec sonication; highest tested 2.5 M
Description: The relative stability of peptide DNA condensates were examined using a salt sonication assay (Adami and Rice, 1999). Peptide DNA condensates (200 μl of 50 μg/ml) were formed as described above, incubated at RT for 30 min and then combined with 0-200 μl of 5 m […] and normalized to 400 μl with HBM to achieve a final sodium chloride concentration of 0, 0.2, 0.4, 0.8, 1.0, 1.5, 2.0 and 2.5 M. Each sample was sonicated for 30 sec with a 100 W Microson™ XL-2000 ultrasonic probe homogenizer (Kontes, Vineland N.J.) with a vibrational amplitude of 5 fragment uncondensed DNA. DNA condensates were digested with 30 μg to trypsin for 12 h at 37° C., electrophoresed on a 1% agarose gel electrophoresed in TEA buffer for 2 h, then visualized by ethidium bromide staining and destaining prior to photography on a transilluminator.

[4] = tested on: HepG2 cells; assay: Luciferase gene expression in HepG2 cells, Example 6; format: cell-based; settings: HepG2, absence of chloroquine
Description: HepG2 cells (1.5×10^5) were plated on 6×35 mm wells and grown to 50% confluencey in MEM supplemented with 10% FBS, penicillin and streptomycin (100 U/ml), sodium pyruvate (100 mM), and L-glutamine (2 mM). Transfections were performed in MEM (2 ml per 35 mm well) with 2% FBS with and without 80 μM chloroquine. Peptide DNA condensates (10 μg of DNA of 0.2 ml HBM) were added dropwise to triplicate wells. After a 5 h incubation at 37° C., the medium was replaced with MEM supplemented with 10% FBS. After 24 h, cells were washed with ice-cold phosphate buffered saline (calcium and magnesium free) and then treated with 0.5 ml of ice-cold lysis buffer (25 mM) Tris chloride pH 7.8, 1 mM EDTA, 8 mM magnesium chloride, 1% Triton X-100, 1 mM DTT) for 10 min. The cell lysates were scraped, transferred to 1.5 ml microcentrifuge tube, and centrifuged for 7 min at 13,000 g at 4° C. to pellet debris.
Lysis buffer (300 μl), sodium-ATP (4 μl of a 180 mM solution, pH 7, 4° C.) and cell lysate (100 μl, 4° C.) were combined in a test tube, briefly mixed and immediately placed in the luminometer. Luciferase relative light units (RLU) were recorded on a Lumat™ LB 9501 (Berthoid Systems, Germany) with 10 sec integration after automatic injection of 100 μl of 0.5 mM D-luciferin (prepared fresh in lysis buffer without DTT). The RLU were converted into fmol using a standard curve generated by adding a known amount of luciferase (0.01 to 100 fmols with specific activity of 2.5 nU/fmol) to 35 mm wells containing 50% confluent cells and lysis buffer. Protein concentrations were measured by Bradford assay using bovine serum albumin as a standard (Bradford, 1976). […]
LipofectAce™ (Gibco BRL, 1:2.5 w/w dimethyl dioctadecylammonium bromide and dioleoyl phosphatidylethanolamine) was used to mediate gene transaction according to the manufacturer's instructions. […] The cells were incubated for a total of 24 h, harvested and analyzed for luciferase as described above.

[5] = QELS particle size and zeta potential of cross-linking peptide DNA condensates, Example 5; format: physicochemical; settings: for Particle Size Mean Diameter, Oxidized, 15° / Particle Size Mean Diameter, Oxidized, 90°: HBM after 2 h incubation, 50 μg/ml DNA, 0.4 nmol peptide per μg DNA; for Particle Size Mean Diameter, Oxidized, 15°: scattering angle 15°; for Particle Size Mean Diameter, Oxidized, 90°: scattering angle 90°; for Particle Size Mean Diameter, Saline: HBM with added saline (0.15 M) after 15 min; for Particle Size Mean Diameter, Reduced: following addition of TCEP (1 mM)
Description: The particle size of each peptide DNA condensate was determined by quasielastic light scattering (QELS) at a scatter angle of both 15° and 90° on a Brookhaven ZetaPlus™ particle sizer. Condensates were prepared at a DNA concentration of 50 μg/ml in 400 μl HBM at a stoichiometry of 0.4 nmol of peptide per μg of DNA corresponding to a charge ratio of approximately 2:1 for each. The mean diameter and population distribution were computed from the diffusion coefficient using a unimodal cummulant analysis supplied by the manufacturer.
The particle size and zeta peptide IV DNA condensates were determined by titrating 7.5 to 37.5 nmol of peptide with 75 μg of DNA in 1.5 ml of HBM to produce 50 μg/ml DNA condensates with charge ratio of 0.5-2.5. The zeta potential was averaged from 10 determines.

[6] = Shear stress stability of cross-linked DNA condensates (salt sonication), Example 5; format: physicochemical; settings: charge ratio of 0.9
Description: Peptide DNA condensates (200 μl of 50 μg/ml) were formed and incubated at RT for 30 min and then combined with 0 to 200 μl of 5 M sodium chloride and normalized to 400 μl with HBM to achieve a final sodium chloride concentration of 0, 0.2, 0.4, 0.8, 1.0, 1.5, 2.0, and 2.5 M. Each sample was sonicated for 30 sec with a 100 W Microson™ XL-2000 ultrasonic probe homogenizer (Kontes, Vineland N.J.) with a vibrational amplitude of 6 to fragment uncondensed DNA (Adami et al., 1998). DNA condensates were digested with 30 μg of trypsin for 12 h at 37° C. then electrophoresed on an agarose gel and visualized by ethidium bromide staining.

Cys-(His-Lys)4-Cys (CHKHKHKHKC) [Peptide 15]
Particle Size (nm) [1]: 205 ± 104 nm
Zeta Potential (mV) [1]: 23 ± 1 mV

Cys-(Lys)2-Cys (CKKC) [Peptide 4]
charge ratio (NH4+:PO4) needed to condense DNA (thiazole orange fluorescence minimum) [2]: > 8

Cys-(Lys)2-Cys-(Lys)2-Cys (CKKCKKC) [Peptide 9]
sodium chloride concentration up to which DNA condensates are stable [3]: 1.5 M
Particle Size (nm) [1]: 1668 ± 154 nm

Cys-(Lys)3-Cys-(Lys)3-Cys (CKKKCKKKC) [Peptide 10]
sodium chloride concentration up to which DNA condensates are stable [3]: 2.5 M
Particle Size (nm) [1]: 1375 ± 324 nm
Zeta Potential (mV) [1]: 34 ± 2 mV

Cys-(Lys)4-Cys-(Lys)4-Cys (CKKKKCKKKKC) [Peptide 11]
sodium chloride concentration up to which DNA condensates are stable [3]: 2.5 M
Particle Size (nm) [1]: 738 ± 154 nm
Zeta Potential (mV) [1]: 31 ± 3 mV

Cys-(Lys)6-Cys (CKKKKKKC) [Peptide 6]
charge ratio (NH4+:PO4) needed to condense DNA (thiazole orange fluorescence minimum) [2]: 2
Particle Size (nm) [1]: 52 ± 4 nm
Zeta Potential (mV) [1]: 37 ± 1 mV

Cys-His-(Lys)3-His-(Lys)2-His-Cys (CHKKKHKKHC) [Peptide 14]
higher gene expression compared to peptide 7 DNA condensates [4]: 4 fold
Particle Size (nm) [1]: 183 ± 64 nm
Zeta Potential (mV) [1]: 20 ± 2 mV

Cys-His-(Lys)6-His-Cys (CHKKKKKKHC) [Peptide 13]
higher gene expression compared to peptide 7 DNA condensates [4]: 4 fold
Particle Size (nm) [1]: 97 ± 40 nm
Zeta Potential (mV) [1]: 31 ± 1 mV

Cys-His-Lys-His-Lys-(His)2-Lys-His-Cys (CHKHKHHKHC) [Peptide 16]
Particle Size (nm) [1]: 320 ± 169 nm
Zeta Potential (mV) [1]: 23 ± 1 mV

Cys-Lys-Cys-Lys-Cys (CKCKC; printed: Cys-Lys-Cys-Lys-Cys) [Peptide 8]
charge ratio (NH4+:PO4) needed to condense DNA (thiazole orange fluorescence minimum) [2]: 6-8

Cys-Trp-Lys5-Cys-Lys5-Cys-Lys5-Cys [Peptide IV]
Particle Size Mean Diameter, Oxidized, 15° [5]: 57 nm
Particle Size Mean Diameter, Oxidized, 90° [5]: 44 nm
Particle Size Mean Diameter, Saline [5]: 324 nm
particle size of electronegative DNA condensates ([5]; charge ratio of 0.9): 62 nm
zeta potential of electronegative DNA condensates ([5]; charge ratio of 0.9): −18 mV
Particle Size Mean Diameter, Reduced [5]: 158 nm
sodium chloride concentration up to which fragmentation was resisted [6]: 2.5 M

Cys-Trp-Lys8-Cys-Lys8-Cys (CWKKKKKKKKCKKKKKKKKC) [III]
Particle Size Mean Diameter, Oxidized, 15° [5]: 26 nm
Particle Size Mean Diameter, Oxidized, 90° [5]: 39 nm
Particle Size Mean Diameter, Saline [5]: 157 nm
Particle Size Mean Diameter, Reduced [5]: 136 nm
